Measurements taken from IntAct's records for PubMed 14668441.

Biological target: arnt_human ARNT (UniProt P27540)

Endothelial PAS domain-containing protein 1 (Homo sapiens), Q99814 Q322E;M338E;Y342T
effect of a mutation on the interaction: disrupting interaction strength
